Substrate in this data set: NC(=O)C1=CN([C@@H]2O[C@H](COP(=O)(O)OP(=O)(O)OC[C@H]3O[C@@H](n4cnc5c(N)ncnc54)[C@H](OP(=O)(O)O)[C@@H]3O)[C@@H](O)[C@H]2O)C=CC1
Nature of the data set: purified protein. The settings on record: reduction of cinnamaldehyde; varied: cofactor.

B1: NtDBR (Nicotiana tabacum) (protein)
chain: MAEEVSNKQVILKNYVTGYPKESDMEIKNVTIKLKVPEGSNDVVVKNLYLSCDPYMRSRMRKIEGSYVESFAPGSPITGYGVAKVLESGDPKFQKGDLVWGMTGWEEYSIITPTQTLFKIHDKDVPLSYYTGILGMPGMTAYAGFHEVCSPKKGETVFVSAASGAVGQLVGQFAKMLGCYVVGSAGSKEKVDLLKSKFGFDEAFNYKEEQDLSAALKRYFPDGIDIYFENVGGKMLDAVLVNMKLYGRIAVCGMISQYNLEQTEGVHNLFCLITKRIRMEGFLVFDYYHLYPKYLEMVIPQIKAGKVVYVEDVAHGLESAPTALVGLFSGRNIGKQVVMVSRE
The Km is the concentration of substrate that gives half-maximal velocity. Turning to B1, the Km was determined as 91 µM and the kcat was 40 min^–1.

The record behind these values is paper PMC4731831, “Better than Nature: Nicotinamide Biomimetics That Outperform Natural Coenzymes” (Journal of the American Chemical Society, 2016).
